Reference: paper PMC10786891, “Massively parallel profiling of RNA-targeting CRISPR-Cas13d”
Changes are numbered by the printed parent chain. Names may count otherwise.

B1: target 2 MT 5'PFS UAG 3'PFS AAU (mixed)
RNA 1: CACCCGUGCAAAAUUGCAGGGGUCUAAAACCUUCUCCAAAUUGUUUCAUCCU
RNA 2: GGGAAUGGAUCCACAUCUACGAAUUCUAGAGGAUGAAACAAUUUGGAGAAGAAUAGAUCGGAAGAGCACACGU
B2: target 2 MT 5'PFS AUU 3'PFS CUA (mixed)
RNA 1: B1 RNA 1
RNA 2: B1 RNA 2 with U27A, A28U, G29U, A52C, A53U, U54A
B3: target 2 MT 5'PFS UCG 3'PFS UCA (mixed)
RNA 1: B1 RNA 1
RNA 2: B1 RNA 2 with A28C, A52U, A53C, U54A
B4: target 2 MT 5'PFS UAG 3'PFS AAG (mixed)
RNA 1: B1 RNA 1
RNA 2: B1 RNA 2 with U54G
B5: target 2 MT 5'PFS AUU 3'PFS CUC (mixed)
RNA 1: B1 RNA 1
RNA 2: B1 RNA 2 with U27A, A28U, G29U, A52C, A53U, U54C
B6: target 2 MT 5'PFS UAG 3'PFS AAC (mixed)
RNA 1: B1 RNA 1
RNA 2: B1 RNA 2 with U54C
B7: target 2 MT 5'PFS UAG 3'PFS AAA (mixed)
RNA 1: B1 RNA 1
RNA 2: B1 RNA 2 with U54A
B8: target 2 MT 5'PFS UAG 3'PFS CCU (mixed)
RNA 1: B1 RNA 1
RNA 2: B1 RNA 2 with A52C, A53C
B9: target 1 C4A,A18U (mixed)
RNA 1: CACCCGUGCAAAAAUGCAGGGGUCUAAAACUGAGCGGAUAACCUCUCUAUGG
RNA 2: GGGAAUGGAUCCACAUCUACGAAUUCGUACCAUUGAGAGGUUAUCCGAUCACCGAGAUCGGAAGAGCACACGU
B10: target 2 MT 5'PFS AUU 3'PFS CUG (mixed)
RNA 1: B1 RNA 1
RNA 2: B1 RNA 2 with U27A, A28U, G29U, A52C, A53U, U54G
B11: target 2 MT 5'PFS UAG 3'PFS CCG (mixed)
RNA 1: B1 RNA 1
RNA 2: B1 RNA 2 with A52C, A53C, U54G
B12: target 2 MT 5'PFS AUU 3'PFS UCC (mixed)
RNA 1: B1 RNA 1
RNA 2: B1 RNA 2 with U27A, A28U, G29U, A52U, A53C, U54C
B13: target 2 MT 5'PFS UAG 3'PFS CCA (mixed)
RNA 1: B1 RNA 1
RNA 2: B1 RNA 2 with A52C, A53C, U54A
B14: target 2 MT 5'PFS CAG 3'PFS UGA (mixed)
RNA 1: B1 RNA 1
RNA 2: B1 RNA 2 with U27C, A52U, A53G, U54A
B15: target 2 MT 5'PFS CAG 3'PFS UGC (mixed)
RNA 1: B1 RNA 1
RNA 2: B1 RNA 2 with U27C, A52U, A53G, U54C
B16: target 2 MT 5'PFS CUC 3'PFS UUA (mixed)
RNA 1: B1 RNA 1
RNA 2: B1 RNA 2 with U27C, A28U, G29C, A52U, A53U, U54A
B17: target 2 MT 5'PFS CUC 3'PFS UUC (mixed)
RNA 1: B1 RNA 1
RNA 2: B1 RNA 2 with U27C, A28U, G29C, A52U, A53U, U54C
B18: target 2 MT 5'PFS CUC 3'PFS UUU (mixed)
RNA 1: B1 RNA 1
RNA 2: B1 RNA 2 with U27C, A28U, G29C, A52U, A53U
B19: target 2 MT 5'PFS CAG 3'PFS ACC (mixed)
RNA 1: B1 RNA 1
RNA 2: B1 RNA 2 with U27C, A53C, U54C
B20: target 1 C2G,G17C (mixed)
RNA 1: B9 RNA 1
RNA 2: B9 RNA 2 with U34A, G35C, A48C, C50G
B21: target 2 MT 5'PFS ACA 3'PFS AUC (mixed)
RNA 1: B1 RNA 1
RNA 2: B1 RNA 2 with U27A, A28C, G29A, A53U, U54C
B22: target 2 MT 5'PFS ACA 3'PFS AUA (mixed)
RNA 1: B1 RNA 1
RNA 2: B1 RNA 2 with U27A, A28C, G29A, A53U, U54A
B23: target 2 MT 5'PFS GAU 3'PFS UCG (mixed)
RNA 1: B1 RNA 1
RNA 2: B1 RNA 2 with U27G, G29U, A52U, A53C, U54G
B24: target 2 MT 5'PFS GAU 3'PFS UCA (mixed)
RNA 1: B1 RNA 1
RNA 2: B1 RNA 2 with U27G, G29U, A52U, A53C, U54A
B25: target 2 MT 5'PFS GAU 3'PFS UCC (mixed)
RNA 1: B1 RNA 1
RNA 2: B1 RNA 2 with U27G, G29U, A52U, A53C, U54C
B26: target 2 MT 5'PFS UUA 3'PFS UGU (mixed)
RNA 1: B1 RNA 1
RNA 2: B1 RNA 2 with A28U, G29A, A52U, A53G
B27: target 2 MT 5'PFS AAG 3'PFS ACU (mixed)
RNA 1: B1 RNA 1
RNA 2: B1 RNA 2 with U27A, A53C
B28: target 2 MT 5'PFS CAC 3'PFS ACG (mixed)
RNA 1: B1 RNA 1
RNA 2: B1 RNA 2 with U27C, G29C, A53C, U54G
B29: target 2 MT 5'PFS CAC 3'PFS ACA (mixed)
RNA 1: B1 RNA 1
RNA 2: B1 RNA 2 with U27C, G29C, A53C, U54A
B30: target 2 MT 5'PFS UAU 3'PFS GCC (mixed)
RNA 1: B1 RNA 1
RNA 2: B1 RNA 2 with G29U, A52G, A53C, U54C
B31: target 1 U11A,A14G (mixed)
RNA 1: B9 RNA 1
RNA 2: B9 RNA 2 with U34A, A38G, U41A, A48C
B32: target 2 MT 5'PFS AAG 3'PFS ACC (mixed)
RNA 1: B1 RNA 1
RNA 2: B1 RNA 2 with U27A, A53C, U54C
B33: target 2 MT 5'PFS UUA 3'PFS UGC (mixed)
RNA 1: B1 RNA 1
RNA 2: B1 RNA 2 with A28U, G29A, A52U, A53G, U54C
B34: target 2 MT 5'PFS AAG 3'PFS ACA (mixed)
RNA 1: B1 RNA 1
RNA 2: B1 RNA 2 with U27A, A53C, U54A
B35: target 2 MT 5'PFS AAG 3'PFS ACG (mixed)
RNA 1: B1 RNA 1
RNA 2: B1 RNA 2 with U27A, A53C, U54G
B36: target 2 MT 5'PFS CAC 3'PFS ACU (mixed)
RNA 1: B1 RNA 1
RNA 2: B1 RNA 2 with U27C, G29C, A53C
B37: target 2 MT 5'PFS AUU 3'PFS UAA (mixed)
RNA 1: B1 RNA 1
RNA 2: B1 RNA 2 with U27A, A28U, G29U, A52U, U54A
B38: target 2 MT 5'PFS GCA 3'PFS UGU (mixed)
RNA 1: B1 RNA 1
RNA 2: B1 RNA 2 with U27G, A28C, G29A, A52U, A53G

The binders below were run against T1, EsCas13d, nuclease-dead (Eubacterium siraeum, UniProt B0MS50, R295A;H300A;R849A;H854A) (assay: crRNA (strand 1, pre-loaded); Mg2+; 40 mM Tris-HCl pH 7.5, 150 mM NaCl, 6 mM MgCl2, 1 mM DTT, 0.1% Tween-20, 0.2 mg/ml BSA; 25 C; 10 min per concentration, then washed). Details: tags: His6-TwinStrep-SUMO cleaved; N-terminal SNAP kept (SNAP-Surface 488); label: 3' end held by stalled T7 RNA polymerase.
T1 sequence: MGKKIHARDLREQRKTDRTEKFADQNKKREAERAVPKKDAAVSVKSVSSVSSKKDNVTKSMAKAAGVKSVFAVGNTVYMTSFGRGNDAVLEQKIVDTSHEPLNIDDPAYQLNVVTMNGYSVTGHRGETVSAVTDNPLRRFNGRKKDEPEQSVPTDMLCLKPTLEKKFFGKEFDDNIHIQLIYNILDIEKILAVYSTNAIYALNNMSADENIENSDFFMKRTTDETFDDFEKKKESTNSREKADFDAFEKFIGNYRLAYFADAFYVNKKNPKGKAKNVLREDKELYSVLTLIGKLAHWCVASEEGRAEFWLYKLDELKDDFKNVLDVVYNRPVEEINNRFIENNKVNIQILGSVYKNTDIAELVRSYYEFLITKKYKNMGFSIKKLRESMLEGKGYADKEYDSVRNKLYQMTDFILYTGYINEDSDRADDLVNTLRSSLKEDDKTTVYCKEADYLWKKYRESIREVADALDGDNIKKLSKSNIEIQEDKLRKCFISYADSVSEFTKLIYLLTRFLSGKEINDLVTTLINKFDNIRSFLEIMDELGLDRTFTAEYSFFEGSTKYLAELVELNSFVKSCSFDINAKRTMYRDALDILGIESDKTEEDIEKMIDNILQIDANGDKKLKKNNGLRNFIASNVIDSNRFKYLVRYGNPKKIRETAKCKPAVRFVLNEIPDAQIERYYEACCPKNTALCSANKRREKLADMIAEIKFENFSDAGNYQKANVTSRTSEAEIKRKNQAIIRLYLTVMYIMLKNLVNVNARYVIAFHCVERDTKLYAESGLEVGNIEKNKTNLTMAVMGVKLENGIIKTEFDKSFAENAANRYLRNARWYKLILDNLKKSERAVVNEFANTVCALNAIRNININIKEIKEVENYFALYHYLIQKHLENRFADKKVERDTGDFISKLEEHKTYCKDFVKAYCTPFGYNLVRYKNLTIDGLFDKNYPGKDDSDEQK

First: B1
Second: B2
The Kd of the first is 3.7-fold lower: 3.8 ± 0.5 nM for the first, 14 ± 4 nM for the second.

Going from B3 to B4, the Kd falls from 21 ± 5 nM to 2.87 ± 0.28 nM (7.3-fold). The second binds more tightly here.

First: B5
Second: B6
The Kd of the first is 4.6-fold higher: 16.6 ± 3.1 nM for the first, 3.6 ± 0.4 nM for the second.

Compared with B7, B8 is 25-fold higher in Kd: 2.2 ± 0.4 nM for the first, 54 ± 17 nM for the second. The first binds more tightly here.

First: B9
Second: B10
The Kd of the first is 2.2-fold higher: 21.1 ± 2.4 nM for the first, 9.7 ± 1.3 nM for the second.

Going from B11 to B12, the Kd rises from 2.56 ± 0.17 nM to 16.7 ± 1.8 nM (6.5-fold).

B13 and B14 are within error of each other in Kd: 5.1 ± 0.4 nM for the first, 6.8 ± 1.4 nM for the second.

B15 and B16 are within error of each other in Kd: 4.7 ± 1.2 nM for the first, 4.9 ± 0.7 nM for the second.

B17 and B18 are within error of each other in Kd: 6.5 ± 1.6 nM for the first, 5.3 ± 0.7 nM for the second.

Going from B19 to B20, the Kd rises from 5.5 ± 1.1 nM to 50 ± 6 nM (9.1-fold). The first binds more tightly here.

B21 and B22 are within error of each other in Kd: 6.2 ± 1.3 nM for the first, 5.7 ± 1.1 nM for the second.

B23 and B24 are within error of each other in Kd: 15.2 ± 1.5 nM for the first, 21 ± 7 nM for the second.

Compared with B25, B26 is 3.5-fold lower in Kd: roughly 80 nM for the first, 23.1 ± 3 nM for the second. The second binds more tightly here.

Going from B27 to B28, the Kd falls from 9 ± 1.3 nM to 2.8 ± 0.8 nM (3.2-fold). The second binds more tightly here.

Going from B29 to B30, the Kd rises from 2.5 ± 0.6 nM to 43 ± 20 nM (17-fold).

First: B31
Second: B32
The Kd of the first is 1.6-fold higher: 43 ± 4 nM for the first, roughly 27 nM for the second. The second binds more tightly here.

Compared with B33, B34 is 6.6-fold lower in Kd: 33 ± 9 nM for the first, 5 ± 0.9 nM for the second. The second binds more tightly here.

First: B35
Second: B36
The Kd of the first is 1.9-fold higher: 5.1 ± 0.9 nM for the first, 2.7 ± 1.1 nM for the second. The second binds more tightly here.

Going from B37 to B38, the Kd rises from 5.4 ± 0.8 nM to 25 ± 5 nM (4.6-fold).
